Several values for one entry are separate records, joined by “and”; a condition that tells them apart may be missing. Equal entries are not always repeated.
Legend:
[1] = target: AF4/FMR2 family, member 4 (human) (UniProt Q9UHB7)
[2] = target: Additional sex combs like 1 (Drosophila) (human) (UniProt Q8IXJ9)
Aurora kinase A (human) = Aurora kinase A (human) (UniProt O14965)
[3] = target: CDKN2A interacting protein (human) (UniProt Q9NXV6)
[4] = target: Calcium channel, voltage-dependent, beta 1 subunit (human) (UniProt Q02641)
[5] = target: Calcium/calmodulin-dependent protein kinase II alpha (human) (UniProt Q9UQM7)
[6] = target: Checkpoint suppressor 1/Forkhead box N3 (human) (UniProt O00409)
[7] = target: Choline kinase alpha (human) (UniProt P35790)
Cortactin (human) = Cortactin (human) (UniProt Q14247)
Cyclin B3 (human) = Cyclin B3 (human) (UniProt Q8WWL7)
[8] = target: DIM1 dimethyladenosine transferase 1 homolog (S. cerevisiae) (human) (UniProt Q9UNQ2)
[9] = target: Elongation factor 1 homolog (ELF1, S. cerevisiae) (human) (UniProt P60002)
[10] = target: Eukaryotic translation initiation factor 1 A, Y-linked (human) (UniProt O14602)
[11] = target: Immunoglobulin (CD79A) binding protein 1 (human) (UniProt P78318)
[12] = target: Microtubule-associated protein 2 (human) (UniProt P11137)
[13] = target: NIMA (never in mitosis gene a)-related kinase 7 (human) (UniProt Q8TDX7)
[14] = target: Nuclear speckle splicing regulatory protein 1 (human) (UniProt Q9H0G5)
[15] = target: Piccolo (presynaptic cytomatrix protein) (human) (UniProt Q9Y6V0)
[16] = target: Potassium channel tetramerisation domain containing 18 (human) (UniProt Q6PI47)
[17] = target: Protein kinase C, iota (human) (UniProt P41743)
[18] = target: RAD51 associated protein 1 (human) (UniProt Q96B01)
[19] = target: Rtf1, Paf1/RNA polymerase II complex component, homolog (S. cerevisiae) (human) (UniProt Q92541)
[20] = target: SLAIN motif family, member 2 (human) (UniProt Q9P270)
[21] = target: Signal recognition particle 19kDa (human) (UniProt P09132)
[22] = target: Ubiquitin-conjugating enzyme E2S (human) (UniProt Q16763)
[23] = target: Vaccinia related kinase 1 (human) (UniProt Q99986)
[24] = target: WAS/WASL interacting protein family, member 1 (human) (UniProt O43516)
[25] = target: WD repeat domain 5 (human) (UniProt P61964)
[26] = target: p 53-regulated DDA3 (DDA3)/proline/serine-rich coiled-coil 1 (human) (UniProt Q6PGN9)
[27] = target: Eukaryotic translation initiation factor 1 A, X-linked (human) (UniProt P47813)
Sequence of Eukaryotic translation initiation factor 1 A, X-linked (human) (P47813 whole entry): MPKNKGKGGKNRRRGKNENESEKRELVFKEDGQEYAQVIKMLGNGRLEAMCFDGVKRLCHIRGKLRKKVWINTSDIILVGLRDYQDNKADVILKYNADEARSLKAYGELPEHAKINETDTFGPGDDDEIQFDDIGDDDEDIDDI

Sequence of Signal recognition particle 19kDa (human) (P09132 whole entry): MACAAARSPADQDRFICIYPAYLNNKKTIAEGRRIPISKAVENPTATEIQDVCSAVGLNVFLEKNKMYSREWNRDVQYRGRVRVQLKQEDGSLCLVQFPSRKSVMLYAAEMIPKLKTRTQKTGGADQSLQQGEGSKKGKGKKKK
Sequence of Vaccinia related kinase 1 (human) (Q99986 whole entry): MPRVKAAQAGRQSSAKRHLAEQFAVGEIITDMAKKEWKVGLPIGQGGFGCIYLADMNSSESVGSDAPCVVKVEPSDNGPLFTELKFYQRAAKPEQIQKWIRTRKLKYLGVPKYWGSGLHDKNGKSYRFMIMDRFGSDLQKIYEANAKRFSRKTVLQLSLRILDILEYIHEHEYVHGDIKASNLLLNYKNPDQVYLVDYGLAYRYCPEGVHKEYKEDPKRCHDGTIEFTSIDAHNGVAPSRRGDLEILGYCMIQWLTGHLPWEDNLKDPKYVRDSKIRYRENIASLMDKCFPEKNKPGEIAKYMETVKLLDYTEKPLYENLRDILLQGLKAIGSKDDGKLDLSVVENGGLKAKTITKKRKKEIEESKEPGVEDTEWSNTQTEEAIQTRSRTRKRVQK
Sequence of CDKN2A interacting protein (human) (Q9NXV6 whole entry): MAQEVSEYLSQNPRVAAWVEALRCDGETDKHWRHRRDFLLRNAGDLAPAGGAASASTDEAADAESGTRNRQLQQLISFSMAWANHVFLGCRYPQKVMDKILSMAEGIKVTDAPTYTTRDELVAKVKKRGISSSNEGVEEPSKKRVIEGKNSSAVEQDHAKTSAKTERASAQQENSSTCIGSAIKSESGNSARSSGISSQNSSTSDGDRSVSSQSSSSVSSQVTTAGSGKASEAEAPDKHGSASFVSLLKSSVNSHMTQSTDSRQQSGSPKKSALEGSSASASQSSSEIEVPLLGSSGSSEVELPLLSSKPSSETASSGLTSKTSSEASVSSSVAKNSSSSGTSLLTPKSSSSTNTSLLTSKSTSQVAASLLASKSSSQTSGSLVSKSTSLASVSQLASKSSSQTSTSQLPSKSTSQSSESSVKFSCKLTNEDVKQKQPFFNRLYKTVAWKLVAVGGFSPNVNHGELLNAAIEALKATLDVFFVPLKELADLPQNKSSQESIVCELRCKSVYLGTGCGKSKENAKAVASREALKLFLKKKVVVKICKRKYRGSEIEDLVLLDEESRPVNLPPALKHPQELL
Sequence of Choline kinase alpha (human) (P35790 whole entry): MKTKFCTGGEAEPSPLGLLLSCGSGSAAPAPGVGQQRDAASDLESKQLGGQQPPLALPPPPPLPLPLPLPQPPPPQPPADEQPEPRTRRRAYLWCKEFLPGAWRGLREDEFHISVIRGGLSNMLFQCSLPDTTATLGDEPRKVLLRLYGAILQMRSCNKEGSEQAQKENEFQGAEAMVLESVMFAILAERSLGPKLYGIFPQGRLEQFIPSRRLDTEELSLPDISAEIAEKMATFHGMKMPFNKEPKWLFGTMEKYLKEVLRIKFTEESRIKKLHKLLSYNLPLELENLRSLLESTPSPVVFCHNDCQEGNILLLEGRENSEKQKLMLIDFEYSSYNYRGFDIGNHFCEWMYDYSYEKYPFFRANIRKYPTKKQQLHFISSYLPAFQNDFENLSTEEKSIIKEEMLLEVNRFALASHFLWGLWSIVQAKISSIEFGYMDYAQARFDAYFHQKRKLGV
Sequence of p 53-regulated DDA3 (DDA3)/proline/serine-rich coiled-coil 1 (human) (Q6PGN9 other isoform, or with tags, fused parts or gaps limits assumed): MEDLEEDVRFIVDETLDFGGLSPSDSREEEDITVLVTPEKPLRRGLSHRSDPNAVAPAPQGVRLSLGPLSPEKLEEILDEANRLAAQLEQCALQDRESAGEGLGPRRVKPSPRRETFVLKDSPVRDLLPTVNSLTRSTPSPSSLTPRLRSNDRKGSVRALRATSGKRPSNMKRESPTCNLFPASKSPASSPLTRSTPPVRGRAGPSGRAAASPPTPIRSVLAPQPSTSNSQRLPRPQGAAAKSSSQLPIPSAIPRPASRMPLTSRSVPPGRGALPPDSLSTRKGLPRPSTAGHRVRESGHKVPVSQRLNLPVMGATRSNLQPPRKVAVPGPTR
Sequence of NIMA (never in mitosis gene a)-related kinase 7 (human) (Q8TDX7 whole entry): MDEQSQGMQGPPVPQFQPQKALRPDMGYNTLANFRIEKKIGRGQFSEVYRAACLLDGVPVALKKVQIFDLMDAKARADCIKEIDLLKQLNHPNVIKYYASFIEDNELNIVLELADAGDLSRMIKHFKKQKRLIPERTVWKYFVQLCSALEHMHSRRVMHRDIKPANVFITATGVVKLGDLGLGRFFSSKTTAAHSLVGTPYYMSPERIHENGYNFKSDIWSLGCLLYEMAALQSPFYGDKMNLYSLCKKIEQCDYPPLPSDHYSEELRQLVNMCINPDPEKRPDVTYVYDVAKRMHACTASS
Sequence of AF4/FMR2 family, member 4 (human) (Q9UHB7 other isoform, or with tags, fused parts or gaps limits assumed): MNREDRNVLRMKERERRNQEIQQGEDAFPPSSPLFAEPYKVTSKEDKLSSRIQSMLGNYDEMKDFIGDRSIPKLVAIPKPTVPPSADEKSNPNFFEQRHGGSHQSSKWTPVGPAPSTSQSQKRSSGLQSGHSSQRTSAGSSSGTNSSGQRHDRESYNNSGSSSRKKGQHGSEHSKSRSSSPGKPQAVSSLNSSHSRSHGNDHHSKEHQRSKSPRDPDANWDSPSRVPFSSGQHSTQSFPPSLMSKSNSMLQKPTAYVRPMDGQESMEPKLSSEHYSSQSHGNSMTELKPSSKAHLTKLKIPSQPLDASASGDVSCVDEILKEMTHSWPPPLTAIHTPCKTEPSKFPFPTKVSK
Sequence of Potassium channel tetramerisation domain containing 18 (human) (Q6PI47 whole entry, the tested form may be a part): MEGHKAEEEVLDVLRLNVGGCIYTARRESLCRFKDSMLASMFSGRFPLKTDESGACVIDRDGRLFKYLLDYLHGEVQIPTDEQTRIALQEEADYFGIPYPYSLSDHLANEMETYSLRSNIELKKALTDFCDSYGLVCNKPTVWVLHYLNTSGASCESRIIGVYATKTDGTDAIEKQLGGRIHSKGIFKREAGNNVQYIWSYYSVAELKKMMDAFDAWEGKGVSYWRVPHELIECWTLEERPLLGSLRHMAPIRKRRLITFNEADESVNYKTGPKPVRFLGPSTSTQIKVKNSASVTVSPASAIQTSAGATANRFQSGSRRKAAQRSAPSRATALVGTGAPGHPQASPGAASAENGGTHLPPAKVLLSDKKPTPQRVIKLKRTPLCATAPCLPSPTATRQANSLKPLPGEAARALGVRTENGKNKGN
Sequence of Eukaryotic translation initiation factor 1 A, Y-linked (human) (O14602 whole entry): as the sequence (P47813 whole entry) above, with M50L counted along it
Sequence of Protein kinase C, iota (human) (P41743 10-596 limits assumed): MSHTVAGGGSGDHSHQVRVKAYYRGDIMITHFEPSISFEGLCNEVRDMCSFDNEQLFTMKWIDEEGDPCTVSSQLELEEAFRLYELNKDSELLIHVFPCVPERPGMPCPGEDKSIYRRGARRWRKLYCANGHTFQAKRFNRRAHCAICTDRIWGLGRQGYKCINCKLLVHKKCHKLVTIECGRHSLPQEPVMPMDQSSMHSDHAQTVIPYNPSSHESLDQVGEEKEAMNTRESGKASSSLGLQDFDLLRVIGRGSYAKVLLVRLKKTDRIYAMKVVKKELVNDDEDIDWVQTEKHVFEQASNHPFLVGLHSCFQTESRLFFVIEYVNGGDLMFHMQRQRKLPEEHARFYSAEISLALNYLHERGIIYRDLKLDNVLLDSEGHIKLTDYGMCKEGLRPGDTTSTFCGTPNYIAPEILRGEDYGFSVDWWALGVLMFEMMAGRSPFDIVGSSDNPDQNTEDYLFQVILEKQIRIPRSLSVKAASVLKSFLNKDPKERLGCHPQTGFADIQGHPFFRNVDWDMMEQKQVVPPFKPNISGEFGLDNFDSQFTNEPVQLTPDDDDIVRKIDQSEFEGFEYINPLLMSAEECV
Sequence of Piccolo (presynaptic cytomatrix protein) (human) (Q9Y6V0 other isoform, or with tags, fused parts or gaps limits assumed): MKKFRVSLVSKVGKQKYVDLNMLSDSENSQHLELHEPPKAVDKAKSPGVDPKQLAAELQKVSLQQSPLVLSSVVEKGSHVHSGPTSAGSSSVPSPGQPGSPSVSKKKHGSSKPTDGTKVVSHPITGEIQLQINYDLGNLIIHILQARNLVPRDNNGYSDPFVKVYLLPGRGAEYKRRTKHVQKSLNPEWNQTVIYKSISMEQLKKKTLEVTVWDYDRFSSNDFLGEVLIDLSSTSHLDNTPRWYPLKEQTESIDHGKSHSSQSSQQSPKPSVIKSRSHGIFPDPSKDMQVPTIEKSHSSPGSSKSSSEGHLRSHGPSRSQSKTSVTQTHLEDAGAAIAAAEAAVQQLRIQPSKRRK
Sequence of Calcium channel, voltage-dependent, beta 1 subunit (human) (Q02641 whole entry): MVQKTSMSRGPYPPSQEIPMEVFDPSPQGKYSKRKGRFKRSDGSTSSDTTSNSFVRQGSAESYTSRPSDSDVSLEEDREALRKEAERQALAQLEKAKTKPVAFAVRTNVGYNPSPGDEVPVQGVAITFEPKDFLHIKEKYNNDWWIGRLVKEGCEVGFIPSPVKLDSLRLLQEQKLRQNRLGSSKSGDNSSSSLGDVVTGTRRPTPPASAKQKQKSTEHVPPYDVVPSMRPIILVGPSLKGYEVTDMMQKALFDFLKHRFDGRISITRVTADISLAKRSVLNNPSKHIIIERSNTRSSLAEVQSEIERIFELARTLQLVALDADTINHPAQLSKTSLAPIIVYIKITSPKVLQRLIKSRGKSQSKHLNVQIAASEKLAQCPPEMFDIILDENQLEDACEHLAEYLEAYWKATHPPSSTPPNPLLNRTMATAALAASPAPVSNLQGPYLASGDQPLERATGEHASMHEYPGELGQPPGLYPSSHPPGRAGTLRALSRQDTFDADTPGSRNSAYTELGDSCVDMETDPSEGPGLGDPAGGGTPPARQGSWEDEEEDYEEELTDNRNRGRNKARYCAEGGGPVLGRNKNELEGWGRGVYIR

Question: Which results are given for “biotinylated full-length Dengue virus capsid (DENV C) protein”?
Answer: Signal Intensity [1]: 1250; Z-score [1]: 5.02; Signal Intensity [2]: 1070; Z-score [2]: 4.19; Signal Intensity (Aurora kinase A (human)): 1160; Z-score (Aurora kinase A (human)): 4.59; Signal Intensity [3]: 1030; Z-score [3]: 4.01; Signal Intensity [4]: 1020; Z-score [4]: 3.94; Signal Intensity [5]: 969; Z-score [5]: 3.72; Signal Intensity [6]: 918; Z-score [6]: 3.48; Signal Intensity [7]: 1740; Z-score [7]: 7.26; Signal Intensity (Cortactin (human)): 3080; Z-score (Cortactin (human)): 13.4; Signal Intensity (Cyclin B3 (human)): 854; Z-score (Cyclin B3 (human)): 3.19; Signal Intensity [8]: 1670; Z-score [8]: 6.93; Signal Intensity [9]: 816; Z-score [9]: 3.02; Signal Intensity [10]: 852; Z-score [10]: 3.18; Signal Intensity [11]: 1940; Z-score [11]: 8.18; Signal Intensity [12]: 875; Z-score [12]: 3.29; Signal Intensity [13]: 918; Z-score [13]: 3.49; Signal Intensity [14]: 928; Z-score [14]: 3.53; Signal Intensity [15]: 929; Z-score [15]: 3.53; Signal Intensity [16]: 856; Z-score [16]: 3.2; Signal Intensity [17]: 841; Z-score [17]: 3.13; Signal Intensity [18]: 1140; Z-score [18]: 4.52; Signal Intensity [19]: 882; Z-score [19]: 3.32; Signal Intensity [20]: 2570; Z-score [20]: 11.1; Signal Intensity [21]: 972 and 818; Z-score [21]: 3.73 and 3.02; Signal Intensity [22]: 1350; Z-score [22]: 5.49; Signal Intensity [23]: 845; Z-score [23]: 3.15; Signal Intensity [24]: 1160; Z-score [24]: 4.59; Signal Intensity [25]: 840; Z-score [25]: 3.13; Signal Intensity [26]: 822; Z-score [26]: 3.04

Question: What does the source list for “biotinylated full-length Dengue virus capsid (DENV C) protein (other; other documents disagree on this pair)”?
Answer: Signal Intensity [27]: 997; Z-score [27]: 3.85
